From paper PMC11091212

Assays:
[1] = target: Microfibril-associated glycoprotein 4 (human) (UniProt P55083); assay: SPR; Ca2+; conditions: domain or fragment
[2] = target: Microfibril-associated glycoprotein 4 (human) (UniProt P55083); assay: SPR; Ca2+ form (octamer): MFAP4 or MFAP4_(C34S) amine-coupled on CM5 (Biacore X), elastogenic proteins as analytes 5-100 µg/mL in TBS/Ca2+ (2 mM CaCl2); 1:1 Langmuir fit, KD is the average over five concentrations

Microfibril-associated glycoprotein 4 (human), sequence (P55083 22-255): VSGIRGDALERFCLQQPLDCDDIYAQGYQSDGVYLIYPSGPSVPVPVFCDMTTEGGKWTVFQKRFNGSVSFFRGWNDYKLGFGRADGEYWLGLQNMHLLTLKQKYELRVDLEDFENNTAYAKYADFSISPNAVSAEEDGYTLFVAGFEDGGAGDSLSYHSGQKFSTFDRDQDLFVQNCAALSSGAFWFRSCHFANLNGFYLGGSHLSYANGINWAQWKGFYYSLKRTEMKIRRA

Kd [1]	Kd [2]	Substance
16 nM	–	N-terminal half of LTBP4S
–	15 nM	latent transforming growth factor beta binding protein-4, short isoform (natural protein)
–	1.8 nM	recombinant N-terminal half of fibrillin-1 (domain or fragment)
